Measurements from patent US20080113907A1, “Uses Of Galectin-2” (Charite-Universitat-Smedizin Berlin, priority 2004, published 2008).

Experiments:
PBT [1] = assay: Extent of apoptosis and necrosis (annexin-V, PI, DAPI staining); assay type: cell-based, human
Experimental: Apoptosis was determined by monitoring fragmentation of nuclear DNA and access of annexin V to c ell surface phosphatidylserine (PS). To detect fragmentation of nuclear DNA, T cells were cultured in the presence and absence of the respective galectins, with or without blocking antibodies or further activation for 48 h. Thereafter, cells were fixed in 0.2 ml of 37% formaldehyde for 10 min at room temperature. The cells were then treated with 1 ml PBS containing 0.2% Nonidet P-40 (Sigma-Aldrich) for 2 min at room temperature and then rinsed once in PBS. The apoptotic cells were detected by staining of nuclear DNA with 4,6-diamino-2-phenylindole (DAPI) (Calbiochem). DAPI was added at a concentration of 0.2 ng/ml of PBS and cells were incubated at room temperature for 20 min in this solution. Cells were rinsed twice in PBS and the coverslips were maintained cell side down on a microscope slide and analyzed using a Zeiss Axiovert 135M microscope (Carl Zeiss, Oberkochen, Germany). To detect early phases of apoptosis, access to PS was measured. Cells were cultured as described, harvested at the respective time points, stained with FITC-labeled annexin-V and PI and analyzed by flow cytometry using the CellQuest software program (BD Pharmingen). A minimum of 15,000 cells was monitored in each case.

T cells = assay: Binding of biotinylated Gal-2 to T lymphocytes (flow cytometry); design: species or system human
Experimental: To measure Gal-2 binding to T lymphocytes, aliquots of cell suspensions were kept as controls or stimulated for 1, 6, 12, 24, 48, and 72 h with anti-CD3 mAb or PMA and PHA and incubated in the presence of 5 μg/ml biotin-labeled Gal-2. Cells were then harvested, washed and stained with anti-CD3-FITC mAb and APC-labeled streptavidin (Biosource) followed by flow cytofluorometric analysis. Cells cultured in the absence of biotin-labeled Gal-2 and stained with FITC-labeled mouse IgG (BD Pharmingen) or APC-labeled streptavidin served as isotype controls. Each analysis was performed on at least 20,000 events.

PBT [2] = assay: Apoptosis regulator proteins by immunoblotting and flow cytometry; assay type: cell-based, human
Experimental: For immunoblotting cells were washed in PBS, and lysed in cell lysis buffer (1% Triton-X, 0.5% NP-40, 0.1% SDS, 0.5% sodium deoxycholate, 5 mM EDTA, 50 mM and 50 mM protease- and phosphatase-inhibitor cocktail 2, 1 mM PMSF, 100 μg/ml trypsin-chymotrypsin inhibitor, 100 μg/ml chymostatin in PBS). The concentration of proteins in each lysate was measured using the Bio-Rad protein assay (Bio-Rad Laboratories, Hercules, Calif.). Equivalent amounts of protein (10 μg) were fractionated on a 10-20% Tris-glycine gel and electrotransferred to a nitrocellulose membrane (Novex, San Diego, Calif.). Membranes were blocked with 5% milk in 0.1% Tween 20-PBS (Fisher Scientific, Hanover Park, Ill.), followed by incubation for 60 m in at room temperature with the indicated primary antibody. The membranes were washed six times with 0.1% Tween 20-PBS and then incubated for 1 h with the appropriate horseradish peroxidase-conjugated secondary antibody (Santa Cruz Biotechnology), washed, and incubated with the chemiluminescent substrate (Perkin-Elmer, Carlsbad, Calif.) for 5 minutes. The membranes were then exposed to film (Amersham, Arlington Heights, Ill.).
(§1) For surface staining, cells were washed twice in ice-cold PBS and 1×10^6 cells were resuspended in flow buffer (HBSS containing 1% BSA and 0.1% sodium azide). Cells were incubated with the respective mAb at predetermined saturating concentrations or with isotype-matched nonspecific mouse mAb (DAKO) for 30 min at 4° C., washed twice with flow buffer, and incubated with FITC-conjugated goat anti-mouse IgG for 30 min at 4° C. The cells were again washed twice with flow buffer, fixed in 1% paraformaldehyde and analyzed by a single laser flow cytometer (FacsCalibur, […]), using Cell Quest software (BD Pharmingen). Cells stained with a negative control Ab were gated to contain <2% positive cells. To perform analysis of intracellular proteins, cells were washed twice with PBS, adjusted to 1×10^6 cells per sample, and fixed in 90% methanol at −20° C. After fixation, cells were washed twice with PBS and incubated with a monoclonal mouse anti-bax, Bcl-2, Rb, Cyclin A, p21, p27, or p53 antibody for 45 minutes at 4° C., followed by an incubation with a goat anti-mouse FITC-conjugated mAb (Biosource) for 45 minutes at 4° C. Thereafter cells were washed and analyzed by flow cytometry as described above. The background level of immunofluorescence was determined by incubating cells with FITC-conjugated mouse IgG (isotype control).

T cells (PBT, LPT) [3] = assay: Adhesion assay to collagen type I and fibronectin; assay type: cell-based, human
Experimental: 96 well flat-bottom plates were precoated overnight at 4° C. with 12 μg/well fibronectin (Chemicon) in DPBS, 40 μg/well collagen type I (Sigma-Aldrich) in 0.1 M acetic acid, or 3% BSA (Sigma-Aldrich) in DPBS as a control and then washed three times with DPBS. Freshly isolated T cells were fluorescently-labelled with 5 μM calcein-AM (Molecular Probes, Eugene, Oreg.) for 30 min at 37° C. in 5% CO2 at 5×10^6 cells/ml in RPMI. The cells were then washed three times with RPMI containing 5% FCS. Calcein-labelled T cells were resuspended in RPMI and 5×10^5 T cells/well were added to 96-well plates containing purified ECM components or BSA for the indicated times. Saturating concentrations of integrin-blocking mAbs (predetermined by flow cytometry) were preincubated with T cells for 30 min at 37° C. before adding T cells to the wells for the adhesion assay. Nonadherent cells were removed by a standardized washing technique that was developed to minimize background binding, which includes both an orbital and a rocking motion repeated three times with RPMI. Adhesion was quantified with a multiwell fluorescent spectrophotometer (Tecan, Groedig, Austria). For each experimental group the results were expressed as the mean percentage±SD of bound T cells from triplicate wells.

T cells (PBT, LPT) [4] = assay: Integrin accessibility on T cell surface (flow cytometry); assay type: cell-based, human
Experimental: as §1

B1: galectin-2: β-galactoside binding lectin, non-covalent dimer with subunits of about 14 kDa; recombinant human or rat (SEQ ID NO:1, 2) (protein)
chain: MAGELEVKNMDMKPGSTLKITGSIADGTDGFVINLGQGTDKLNLHFNPRFSESTIVCNSLDGSNWGQEQREDHLCFSPGSEVKFTVTFESDKFKVKLPDGHELTFPNRLGHSHLSYLSVRGGFNMSSFKLKE
With B1 the “time to induction of apoptosis” value (PBT [1]) was 6 to 12 h, the “time course of annexin-V staining” value (PBT [1]; 50 μg/ml, anti-CD3) was “gradual increase over 72 h” and the “nuclear fragmentation (DAPI staining)” value (PBT [1]; 25 and 50 μg, data not shown) was “induce nuclear fragmentation”. For the same molecule, the “T cell apoptosis (annexin-V)” value (PBT [1]; PBT activated by anti-CD3 mAbs) was “induced a dose-dependent apoptosis”, the “T cell necrosis (PI)” value (PBT [1]; PBT activated by anti-CD3 mAbs) was “albeit to a much lesser extent, necrosis” and the “apoptosis of T cells from patients with RA or CD” value (PBT [1]; anti-CD3, 48 hours, 0, 10, 25, 50 μg/ml) was “induces apoptosis”. The “percentage of T cell apoptosis relative to galectin-1” value (PBT [1]; anti-CD3 activated PBT) was “higher than that induced by galectin-1”, the “apoptosis in CD4 and CD8 positive T cell populations” value (PBT [1]; data not shown) was “comparable in CD4 and CD8 positive T cell populations” and the “T cell apoptosis (annexin-V)” value (PBT [1]; without cell stimulation, 0, 10, 25, 50, 100 μg/ml) was “failed to induce T cells apoptosis”. For the same molecule, the “time bound to T cells” value (T cells) was “more than 72 hours”, the “binding to T cells after stimulation” value (T cells; PMA/PHA or anti-CD3 antibody) was “increase in cell staining” and the “binding to T cells” value (T cells; unstimulated T cells) was “bound to unstimulated T cells in a β-galactoside-specific manner”. The bax protein expression (PBT [2]; 0, 25, 50 μg/ml, 48 h) was “increases”, the bcl-2 protein expression (PBT [2]; 0, 25, 50 μg/ml, 48 h) was “significantly reduces” and the cytochrome c release (PBT [2]; data not shown) was “dose-dependently increased cytochrome c release in activated, but not resting T cells”. The “DNA-fragmentation factor (DFF)” value (PBT [2]; immunoblotting) was “dose-dependently upregulated”, the “cells adhering to collagen type I” value (T cells (PBT, LPT) [3]; CD3 activated PBT, without galectin 22.1±3.5%) was 15.1±5.6% and the “cells adhering to fibronectin” value (T cells (PBT, LPT) [3]; CD3 activated PBT, without galectin 26.3±5.6%) was 39.8±4.9%. For the same molecule, the attachment to fibronectin (T cells (PBT, LPT) [3]; LPT) was “increasing”, the “cell adhesion to collagen” value (T cells (PBT, LPT) [3]; LPT) was “inhibited” and the β4 integrin accessibility (T cells (PBT, LPT) [4]; CD3 activated PBT) was “neither galectin-1 nor galectin-2 changed”. For the same molecule, the “integrin α5 accessibility” value (T cells (PBT, LPT) [4]; CD3 activated PBT, 50 μg/ml) was “downregulated”, the “integrin β1 accessibility” value (T cells (PBT, LPT) [4]; CD3 activated PBT, 50 μg/ml) was “downregulated” and the “integrin a5 accessibility” value (T cells (PBT, LPT) [4]; CD3 activated PBT, second statement) was “slightly upregulated”. The “integrin β1 accessibility” value (T cells (PBT, LPT) [4]; intestinal T cells (LPT)) was “failed to modulate”.
